PMC11066036

Molecular target: T1, HPK1 intact citron homology domain fragment (C428-E821), untagged, Q92918-2
T1 chain: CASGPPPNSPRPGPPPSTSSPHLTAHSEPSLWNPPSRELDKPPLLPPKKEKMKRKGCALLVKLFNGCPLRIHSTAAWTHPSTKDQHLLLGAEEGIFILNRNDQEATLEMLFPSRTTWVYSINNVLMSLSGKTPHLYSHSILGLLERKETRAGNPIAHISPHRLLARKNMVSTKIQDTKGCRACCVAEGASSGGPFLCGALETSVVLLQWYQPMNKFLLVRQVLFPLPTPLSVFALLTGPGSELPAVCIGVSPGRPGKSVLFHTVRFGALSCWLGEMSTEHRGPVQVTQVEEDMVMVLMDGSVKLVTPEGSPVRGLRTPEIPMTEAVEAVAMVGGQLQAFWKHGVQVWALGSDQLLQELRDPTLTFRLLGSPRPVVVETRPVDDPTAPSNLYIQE
Test: SPR
Details: chain shown with the change; left plot; plateau of the last (highest) of five successive CHD injections, about 800-900 s; CHD concentrations not given; read off a plot

response (Response Units): 42
B1: HPK1 kinase domain wild type (D2-N293) S171A (protein)
chain: DVVDPDIFNRDPRDHYDLLQRLGGGTYGEVFKARDKVSGDLVALKMVKMEPDDDVSTLQKEILILKTCRHANIVAYHGSYLWLQKLWICMEFCGAGSLQDIYQVTGSLSELQISYVCREVLQGLAYLHSQKKIHRDIKGANILINDAGEVRLADFGISAQIGATLARRLAFIGTPYWMAPEVAAVALKGGYNELCDIWSLGITAIELAELQPPLFDVHPLRVLFLMTKSGYQPPRLKEKGKWSAAFHNFIKVTLTKSPKKRPSATKMLSHQLVSQPGLNRGLILDLLDKLKN
